Patent publication US20240009242A1 (STARKAGE THERAPEUTICS, published 2024)
Ends that are not written are not given here.

T1: hDEP1 Peptide #1 (human, also: conjugated to BSA)
T1 peptide: AGGTPSPIPDPSV

T2: hDEP1 Peptide #2 (human, also: conjugated to BSA)
T2 peptide: PVLGDIEGTPGFLQVHT

T3: hDEP1 Peptide #3 (human, also: conjugated to BSA)
T3 peptide: EVVPKEPALVLKWT

T4: hDEP1-ECD-His (human, UniProt Q12913 621-969)
T4 construct: Produced in CHO cells, purified on Ni-NTA; also called recombinant protein hDEP1-ECD-His
T4 sequence: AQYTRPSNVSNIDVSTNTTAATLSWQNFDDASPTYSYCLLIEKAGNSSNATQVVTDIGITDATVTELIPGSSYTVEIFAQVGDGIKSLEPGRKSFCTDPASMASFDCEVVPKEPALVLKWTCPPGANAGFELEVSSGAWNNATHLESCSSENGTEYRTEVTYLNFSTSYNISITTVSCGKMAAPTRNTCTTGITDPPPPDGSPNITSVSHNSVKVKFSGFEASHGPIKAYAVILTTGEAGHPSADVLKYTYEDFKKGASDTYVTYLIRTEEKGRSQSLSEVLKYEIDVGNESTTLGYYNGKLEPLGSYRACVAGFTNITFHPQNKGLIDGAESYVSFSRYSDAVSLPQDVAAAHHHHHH

T5: murine counterpart of hDEP1-ECD-His (murine, UniProt Q64455 524-870)
T5 construct: also called mDEP1
T5 sequence: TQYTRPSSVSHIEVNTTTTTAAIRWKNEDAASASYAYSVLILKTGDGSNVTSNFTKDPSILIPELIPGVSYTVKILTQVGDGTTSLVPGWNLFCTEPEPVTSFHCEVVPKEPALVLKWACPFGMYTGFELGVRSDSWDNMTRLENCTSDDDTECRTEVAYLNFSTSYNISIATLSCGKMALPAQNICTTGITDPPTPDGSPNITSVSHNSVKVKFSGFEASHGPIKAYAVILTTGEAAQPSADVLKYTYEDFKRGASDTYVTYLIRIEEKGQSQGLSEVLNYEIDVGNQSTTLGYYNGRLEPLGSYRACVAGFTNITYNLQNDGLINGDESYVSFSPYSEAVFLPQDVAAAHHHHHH

T6: hDEP1 Peptide #4 (human, also: conjugated to BSA)
T6 construct: also called hDEP1 Peptide #4/BSA
T6 peptide: ADVLKYTYEDFKKGASDT


Key:
hDEP1 Peptide #1 = target: T1, hDEP1 Peptide #1; assay: indirect ELISA, purified soluble scFv
hDEP1 Peptide #2 = target: T2, hDEP1 Peptide #2; assay: indirect ELISA, purified soluble scFv
hDEP1 Peptide #3 = target: T3, hDEP1 Peptide #3; assay: indirect ELISA, purified soluble scFv
hDEP1-ECD-His = target: T4, hDEP1-ECD-His; assay: indirect ELISA, purified soluble scFv
[1] = target: T5, murine counterpart of hDEP1-ECD-His; assay: indirect ELISA, purified soluble scFv
BSA = target: T7, BSA (UniProt P02769 25-607); assay: indirect ELISA, purified soluble scFv
T7 construct: Negative control antigen in the ELISAs; also called negative control (BSA only)

hDEP1 Peptide #4 [2] = target: T6, hDEP1 Peptide #4; assay: ELISA, soluble scFv produced in microtiter plate
Experimental: 96 isolated clones from the second, third and fourth rounds of panning were hand-picked and used to produce the respective soluble scFv in microtiter plate. Each clone was then tested in ELISA against hDEP1 Peptide #4/BSA.

hDEP1 Peptide #4 [3] = target: T6, hDEP1 Peptide #4; assay: indirect ELISA, purified soluble scFv

T7 sequence (P02769 25-607 limits assumed): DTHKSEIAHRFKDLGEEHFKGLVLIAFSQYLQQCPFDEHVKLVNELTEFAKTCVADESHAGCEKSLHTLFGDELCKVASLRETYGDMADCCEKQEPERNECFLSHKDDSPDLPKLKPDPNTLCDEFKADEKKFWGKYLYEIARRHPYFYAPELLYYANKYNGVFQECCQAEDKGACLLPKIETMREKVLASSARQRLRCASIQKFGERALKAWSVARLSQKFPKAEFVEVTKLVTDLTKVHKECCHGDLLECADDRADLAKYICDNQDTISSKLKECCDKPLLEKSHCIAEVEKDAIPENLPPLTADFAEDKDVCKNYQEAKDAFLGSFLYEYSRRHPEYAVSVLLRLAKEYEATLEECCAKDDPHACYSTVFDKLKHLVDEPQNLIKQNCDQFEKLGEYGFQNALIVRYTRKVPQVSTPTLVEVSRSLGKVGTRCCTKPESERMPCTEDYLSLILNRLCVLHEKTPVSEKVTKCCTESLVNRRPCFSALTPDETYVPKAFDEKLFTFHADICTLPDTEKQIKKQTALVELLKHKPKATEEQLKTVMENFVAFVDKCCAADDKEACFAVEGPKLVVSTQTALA

binding result (hDEP1 Peptide #1) | binding result (hDEP1 Peptide #2) | binding result (hDEP1 Peptide #3) | binding result (hDEP1-ECD-His) | binding result [1] | binding result (BSA) | binding result (hDEP1 Peptide #4 [2]) | binding result (hDEP1 Peptide #4 [3]) | Binder
no binding | no binding | no binding | binds | no binding | no binding | binds |  | 5738-10-R4A-G12 (scFv, V domains shown, anti-hDEP1 scFv, rat 10 library, format VH/VL-6xHis-Flag) VH: QVQLKESGAELAKPGSSVKISCKASGYTFTSDSISWIKQTTGQGLEYIGYIHPGSGVTNYNEKFKGKATLTVDKSSSTAFMQLSSLTPDDSAIYYCARYFDYWGQGVMVTVSS VL: DILMTQSPSSMSVSLGDTVTITCRASQDVGIYVNWFQQKPGKSPRRMIYRATNLADGVPSRFSGSRSGSDYSLTISSLESEDVADYHCLQYDEYPPTFGGGTKLELK
no binding | no binding | no binding |  | no binding | no binding |  | no binding | 5738-13-R4A-D11 (scFv, V domains shown, anti-hDEP1 scFv, rat 13 library, format VH/VL-6xHis-Flag) VH: QVQLKESGGGLVQPGRSLKLSCAASGFSFGDYNMAWVRQAPKKGLEWVATISYDDYRTYYRDSVKGRFTISRDDAKATLYLQMDSLRSEDTATYYCARQGGIIRGVWFPYWGQGTLVTVSS VL: DIQMTQTPASLSASLEEIVTITCQASQDIGNWLAWYQQKPGKSPHLLIYGATTLADGVPSRFSGSRSGTQYSLKISRLQAEDIGIYYCQQASSAPWTFGGGTKLELK
